Experimental data taken from patent publication US20230220104A1 (BRIGHTPATH BIOTHERAPEUTICS, published 2023).
Substitutions are numbered along the chain they refer to. Where two headings read alike, the source gives them in different places. One block for each binder: values may come before it.

Legend:
[1] = target: T1, human CD73 on cells (H322, MDA-MB-231, HT-144, T cells, CD73-transfected HEK293T) (human, UniProt P21589 27-549); assay: cell-based or functional assay
T1 sequence (looked up): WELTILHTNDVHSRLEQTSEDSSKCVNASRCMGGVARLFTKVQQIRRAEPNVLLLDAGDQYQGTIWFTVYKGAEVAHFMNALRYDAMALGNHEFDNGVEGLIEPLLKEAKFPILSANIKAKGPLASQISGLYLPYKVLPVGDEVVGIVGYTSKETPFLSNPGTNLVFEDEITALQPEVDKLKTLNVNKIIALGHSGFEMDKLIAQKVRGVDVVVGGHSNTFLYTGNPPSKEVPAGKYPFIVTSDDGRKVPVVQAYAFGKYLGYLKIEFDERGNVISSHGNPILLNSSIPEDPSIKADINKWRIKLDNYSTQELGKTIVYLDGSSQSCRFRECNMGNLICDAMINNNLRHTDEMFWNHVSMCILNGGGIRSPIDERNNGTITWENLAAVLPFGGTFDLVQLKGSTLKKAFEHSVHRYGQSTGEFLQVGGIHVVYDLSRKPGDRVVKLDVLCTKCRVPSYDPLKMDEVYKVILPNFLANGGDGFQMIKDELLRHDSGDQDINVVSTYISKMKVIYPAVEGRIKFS

[2] = target: T1, human CD73 on cells (H322, MDA-MB-231, …); assay: cell-based or functional assay; remark: listed apart in the source
[3] = target: T1, human CD73 on cells (H322, MDA-MB-231, …); assay: flow cytometry on H322 cells (endogenous CD73), PE channel
Protocol: Analysis of the binding activity of each of the obtained humanized antibodies 002_6_h1 to 002_6_h8 to target expressing cells was carried out by FACS analysis using endogeneously CD73 expressing cells (human lung cancer cell line H322).

[4] = target: T1, human CD73 on cells (H322, MDA-MB-231, …); assay: cell-based or functional assay; remark: listed apart in the source
[5] = target: T1, human CD73 on cells (H322, MDA-MB-231, …); assay: flow cytometry, HEK293T cells forcibly expressing human CD73 (293T_hCD73) against untransfected 293T cells, APC channel
[6] = target: T1, human CD73 on cells (H322, MDA-MB-231, …); assay: cell-based or functional assay; remark: listed apart in the source
[7] = target: T1, human CD73 on cells (H322, MDA-MB-231, …); assay: cell-based or functional assay; remark: listed apart in the source

IC50 of AMP degradation suppressive function, MDA-MB-231 cells [1]: 0.032 µg/mL
IC50 of AMP degradation suppressive function (cell line of Table 7 not stated; H322 in FIG. 12) [2]: 0.013 µg/mL
B1: 004_m antibody (antibody, V domains shown)
VH: QVQLQQPGAELVRPGTSVKLSCKASGYTFTGYWMNWLKQRPDQGLEWIGRIDPYDSETHYSQKFKDKAILTVHKSSSTAYIQLNSLTSEDSAVYYCTRSSPITTAPFDYWGRGTTLTVSS
VL: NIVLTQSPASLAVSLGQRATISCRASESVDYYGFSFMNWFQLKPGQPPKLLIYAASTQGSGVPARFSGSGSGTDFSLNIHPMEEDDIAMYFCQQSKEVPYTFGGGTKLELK

IC50 of AMP degradation suppressive function (cell line of Table 7 not stated; H322 in FIG. 12) [2]: 0.088 µg/mL
B2: 003_m antibody (antibody, V domains shown)
VH: DVKLVESGGGLVQPGGSRKLSCAASGFTFSSFGMHWVRQAPEKGLEWVAYISSGSRTIYYADTVRGRFTISRDNSKNTLFLQLTSLRSEDTAIYYCASDFGSSSPNYFDYWGQGTTVTVSS
VL: not shown

binding result [3]: binds
B4: 002_6_h6 (antibody, V domains shown)
VH: QVQMKESGAEVKKPGASVKVSCKASGYTFTDSNMDWVRQAPGQGLEWMGDINPNNGGTIYNQKFKGRVTMTIDTSTSTVYMELSSLRSEDTAVYYCARTNWDYAMDYWGQGTLVTVSS
VL: DIQVTQSPSFLSASVGDRVTITCKASQDINSQLSWYQQKPGKAPKTLIYRANRLIDGVPSRFSGSGSGTDFTLTISSLQYEDMATYYCLQYDVFPRTFGGGTKVEIK
notes: Humanized antibody of 002_6_c; also called humanized antibody 002_6_h6

IC50 of AMP degradation suppressive function, H322 cells [4]: 0.236 µg/mL
B6: 002_6_h2 (antibody, V domains shown)
VH: B4 VH with E6Q, G44R, M70I, T76A, V79A
VL: B4 VL with V4M, F10S, L11M, G100Q, V104L

binding result [3]: binds
B7: 002_6_h5 (antibody, V domains shown)
VH: B4 VH with M4L, K5Q, I72R
VL: B4 VL with T46L, D70E, Y80P, M83F, L89Q
notes: Humanized antibody of 002_6_c; also called humanized antibody 002_6_h5

binding result [5]: binds
B8: 008_h4 antibody (antibody, V domains shown)
VH: QVQLVQSGAEVKKPGASVKVSCKASGYTFTSYWMHWVRQRPGQGLEWMGEINPSNGRTNYNEKFKNRATITADKSSSTAYMELSSLRSEDTAVYYCARRGTSGNYFDYWGQGTLVTVSS
VL: B4 VL with V4M, F10S, S31T, Q32Y, Y36F, I55V, S67Y, V93E, R96Y
notes: Humanized antibody based on 008_m

IC50 of AMP degradation suppressive function, H322 cells [4]: 0.04 µg/mL
IC50 of AMP degradation suppressive function, H322 cells [6]: 0.042 µg/mL
IC50 of AMP degradation suppressive function, MDA-MB-231 cells [1]: 0.04 µg/mL
IC50 of AMP degradation suppressive function, MDA-MB-231 cells [7]: 0.023 µg/mL
B13: 002_6_c antibody (antibody, V domains shown)
VH: QVQMKQSGPELVKPGASVKIPCKASGYTFTDSNMDWVKQSHGESLEWIGDINPNNGGTIYNQKFKGKVTLTIDKSSSTAYMELRSLTSEDTAVYYCARTNWDYAMDYWGQGTSVTVSS
VL: DIQMTQSPSSMYASLGERVTITCKASQDINSQLSWFQQKPGKSPKTLIYRANRLIDGVPSRFSGSGSGQDYSLTISSLEYEDMGIYYCLQYDVFPRTFGGGTKLELK

IC50 of AMP degradation suppressive function, H322 cells [6]: 0.066 µg/mL
B14: 002_5_c antibody (antibody, V domains shown)
VH: B13 VH
VL: B13 VL with Q32D

Continued, binder first:

B3: 002_6_h1 (antibody, V domains shown)
VH: B4 VH with M4L, K5V, E6Q, G44R, M70I, I72R, T76A, V79A
VL: B4 VL with V4M, F10S, T46L, Y80P, M83F, L89Q, G100Q, V104L
notes: Humanized antibody of 002_6_c; also called humanized antibody 002_6_h1
binding result [3]: binds

B5: 002_6_h3 (antibody, V domains shown)
VH: QVQLLQSAAEVRKPGASVKVSCKASGYTFTDSNMDWVRQAPGQGLEWMGDINPNNGGTIYNQKFKGRVTMTTDTSRRTAYMELRSLRSDDTAVYYCARTNWDYAMDYWGQGTTVTVSS
VL: B4 VL with V4M, T46L, D70E, Y80P, M83F, L89Q, V104L
notes: Humanized antibody of 002_6_c; also called humanized antibody 002_6_h3
binding result [3]: binds

B9: 004_h3 antibody (antibody, V domains shown)
VH: EVQLVQSGAEVKKPGESLKISCKASGYTFTGYWMNWLRQMPDKGLEWMGRIDPYDSETHYSQKFKDKVTITAHKSSSTAYLQWSSLKASDSAIYYCARSSPITTAPFDYWGQGTTVTVSS
VL: DIVMTQSPASLAVSLGERATISCRASESVDYYGFSFMNWYQQKPGQPPKLLIYAASTQGSGVPDRFSGSGSGTDFTLTISSLQAEDVAVYYCQQSKEVPYTFGGGTKVEIK
notes: Humanized antibody based on 004_m
binding result [5]: binds

B10: 002_1_c antibody (antibody, V domains shown)
VH: B13 VH with S32C
VL: B13 VL with Q32N
IC50 of AMP degradation suppressive function, H322 cells [6]: 0.042 µg/mL

B11: 006_m antibody (antibody, V domains shown)
VH: QVQLQQPGAELVKPGVSVKLSCKASGYTFTSYWMHWVKQRPGQGPEWIGEINPSNARTNYNENFKSKATLTVDKSSTTAYMHFSRLTSEDSAVYYCARRGTSGNYFDFWGQGTTVTVSS
VL: B13 VL with S31T, Q32Y, I55V, Q69E, V93E, R96Y, K103R, L106I
IC50 of AMP degradation suppressive function, MDA-MB-231 cells [1]: 0.032 µg/mL
IC50 of AMP degradation suppressive function (cell line of Table 7 not stated; H322 in FIG. 12) [2]: 0.008 µg/mL

B12: 007_m antibody (antibody, V domains shown)
VH: QVQLQQPGAELVRPGASVKLSCKASGYTFTSYWMNWVKQRPEQGLEWIGKIDPYDSETHYNQKFKDKAILTVDKSSSTAFMQLSSLTSEDSAVYYCARIRYGTFDYWGQGTTLTVSS
VL: B13 VL with Q3V, S31N, Q32Y, R53I, I55V, R61G, V93E, R96Y, K103R, L106I
IC50 of AMP degradation suppressive function, MDA-MB-231 cells [1]: 0.041 µg/mL
IC50 of AMP degradation suppressive function (cell line of Table 7 not stated; H322 in FIG. 12) [2]: 0.012 µg/mL

B15: 002_3_c antibody (antibody, V domains shown)
VH: B13 VH with S32C
VL: B13 VL
IC50 of AMP degradation suppressive function, H322 cells [6]: 0.039 µg/mL

B16: 002_4_c antibody (antibody, V domains shown)
VH: B13 VH
VL: B13 VL with Q32N
IC50 of AMP degradation suppressive function, H322 cells [6]: 0.038 µg/mL

B17: 002_2_c antibody (antibody, V domains shown)
VH: B13 VH with S32C
VL: B13 VL with Q32D
IC50 of AMP degradation suppressive function, H322 cells [6]: 0.077 µg/mL

B18: 008_m antibody (antibody, V domains shown)
VH: QVQLKQSGAELVKPGASVKLSCKASGYTFTSYWMHWVKQRPGQGPEWIGEINPSNGRTNYNEKFKNRATLTVDKSSSTAYMQLSRLTSEDSAVYYCARRGTSGNYFDYWGQGTTLTVSS
VL: B13 VL with S31T, Q32Y, I55V, Q69E, V93E, R96Y, K103R, L106I
IC50 of AMP degradation suppressive function, MDA-MB-231 cells [1]: 0.031 µg/mL
IC50 of AMP degradation suppressive function (cell line of Table 7 not stated; H322 in FIG. 12) [2]: 0.006 µg/mL
